Results reported in article doi:10.1101/2021.07.08.451529v1.

Legend:
[1] = substrate: O=C(O)CC(=O)C(=O)O; assay: purified protein; conditions: 100 μM NADH, 0.1 M phosphate pH 7.5, 0.1 M KCl, 24 °C
[2] = substrate: NC(=O)C1=CN([C@@H]2O[C@H](COP(=O)(O)OP(=O)(O)OC[C@H]3O[C@@H](n4cnc5c(N)ncnc54)[C@H](O)[C@@H]3O)[C@@H](O)[C@H]2O)C=CC1; assay: purified protein; conditions: 150 μM oxaloacetate, 0.1 M phosphate pH 7.5, 0.1 M KCl, 24 °C

B1: recombinant MDH-2 (Caenorhabditis elegans) (protein)
chain: SQAPKVALLGAAGGIGQPLGLLLKQDPLVAHLALYDVVNTPGVAADLSHIDSNAKVTAHTGPKELYAAVENADVIVIPAGVPRKPGMTRDDLFNTNAGIVRDLAAVIAKASPKALIAIITNPVNSTVPIASEVLKKAGVYDPKRVFGVTTLDVVRSQAFVSELKGHDASKTVVPVVGGHAGITIIPLLSQVKPSTKFSEEEISKLTPRIQDAGTEVVNAKAGAGSATLSMALAGARFANALVRGIKGEKNVQCAYVASDAVKGVEYFSTPVELGPNGVEKILGVGKVSAYEQKLIDASVPELNKNIAKGVAFVKGN
For B1, the Km [1] was 52 ± 4 µM.

B2: endogenous MDH-2 (Caenorhabditis elegans) (protein)
chain: B1 chain
B2 showed a Km [1] of 42 ± 2 µM.

B3: recombinant MDH-1 (Caenorhabditis elegans) (protein)
chain: MSAPLRVLVTGAAGQIGYSIVIRIADGTVFGKEQPVELVLLDVPQCSNILEGVVFELQDCALPTLFSVVAVTDEKSAFTGIDYAFLVGAMPRREGMERKDLLAANVKIFKSQGKALAEYAKPTTKVIVVGNPANTNAFIAAKYAAGKIPAKNFSAMTRLDHNRALAQLALKTGTTIGNVKNVIIWGNHSGTQFPDVTHATVNKNGTETDAYAAVGDNAFLQGPFIATVQKRGGVIIEKRKLSSAMSAAKAACDHIHDWHFGTKAGQFVSMAVPSDGSYGIPQGLIFSFPVTIEGGEWKIVQGLSFDDFAKGKIAATTKELEEERDDALKACDDANI
B3 gave a Km [2] of 61 ± 6 µM and a Km [1] of 54 ± 4 µM.

B4: endogenous MDH-1 (Caenorhabditis elegans) (protein)
chain: B3 chain
In the case of B4, the Km [1] is reported as 50 ± 4 µM.
